Each sequence was assayed on Saccharomyces cerevisiae (assay: transcriptional activation domain activity (GFP:mCherry ratio, weighted mean of sorted bins, harmonized to initial dataset scale) (arbitrary fluorescence ratio units); higher = stronger transcriptional activation). Conditions: beta-estradiol 1 µM; induction time 4 h.
Procedure, shortened: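 Protein tiles carrying barcodes and fused to an estradiol-inducible synthetic transcription factor were placed at the URA3 locus of yeast diploids with a GFP reporter. Following 4 hours at 30 °C in SC with 1 uM beta-estradiol, cells were sorted into 8 GFP:mCherry bins, barcodes were sequenced, and tiles with fewer than 50 reads were discarded. Activation activity is given as the read-weighted mean of bin median fluorescence, averaged across barcodes and linearly mapped to the initial dataset scale.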
For “YGADDFFFPPEGCDNNMLYPQTATSWNVLPPQAMQPAPTYVGRPYTPNYRSTP”, the “transcriptional activation domain activity” value was 71900.
For “GAKVRSWPLTYIYTLYFFMTYFIFYRNLFARLQDPKQVLYLQLGLSMWIVFIY”, the “transcriptional activation domain activity” value was 35200.
“MAALGGGKYFVCMLTQIVVNFCFLLSVPFSSPPLLLPCYLIIRYSFSFFLFCL” was tested, and the “transcriptional activation domain activity” value was 64700.
“DDEHEDRHREGRGSRGDRTRSASADSKHRSSRRDKEKHRSSRSHRDRSKEQRR” was tested, and the “transcriptional activation domain activity” value was 37400.
“MIPLSHRKHKLISLPYLLVSSWLFLSVTLSIPLLQSYIAKHYSTGLVLFLLYF” was tested, and the “transcriptional activation domain activity” value was 71900.
In the case of “MPPQSRQSRMPEAPAEPRSARGRVTKRRSGNACVRCRRQKIKCSGSHPCEACS”, the “transcriptional activation domain activity” value is reported as 24800.
“DLFMTLGWISGFMAELIAVQGACSLGWHPGCTNFNWLMAWLFFLFLSWGAGFF” was tested, and the “transcriptional activation domain activity” value was 66400.
With “EEEGAVDEDEEEEDEEDPEERRKRELRERMAKMSGGMGMAGMFGGGMPMPGAA” the “transcriptional activation domain activity” value was 58900.
With “IGQFRFLQRLVLVHGRWSYRRLAETISNFFYKNMIWTFSIFWYQVFCNFDITY” the “transcriptional activation domain activity” value was 24600.
For “KVERGREVRKKAREEREKRGATGGGRGKGRGKGKGKGRDGERGKSAAEEGAGA”, the “transcriptional activation domain activity” value was 10800.
“MPLWPPFWSAFSFSFSFVLSFFFFLFPFPFPFPFPFSFSLSFLFFLFFSFLFF” was tested, and the “transcriptional activation domain activity” value was 31000.
With “LFHSYFSFLLLFFFFFFFYFLPFFFFLPSLLPHFLLFSFYFPFISPFLSTSFS” the “transcriptional activation domain activity” value was 58800.
For “MVGLVGFWVLFLFFLCPFLFSCPLPLPPLRPSLYIFQISYGSFFSCFSFLFFS”, the “transcriptional activation domain activity” value was 63800.
With “LQAAAALESNTADGEDTNMETEEDKSGADGRSVYVGNVGYRFAVLLASNQVDY” the “transcriptional activation domain activity” value was 36600.
For “RYIATGRGFATTRISFSILFSRFAGPSIYLGMRTLLMLLYVTLSFWTPYLIYF”, the “transcriptional activation domain activity” value was 54700.
For “FIPLQAGIKQLIGRLSLPRHPLSNLNHLIPRHIVFTDCIWLILRQLSTLKHWA”, the “transcriptional activation domain activity” value was 57800.
With “MMPRGSYLAFFLLLLFYSFLSLFTPLNFVFLFFLSPLLRLHTLFYLLYFFGLA” the “transcriptional activation domain activity” value was 42100.
In the case of “MITRCHLIIFLFWLLLLLLLFRCWATFLCISAWLFAKQEKQTFCQPCLLIMRV”, the “transcriptional activation domain activity” value is reported as 38200.
For “NIFVLHWLPSLSIASLFHTSSSSSPLLAQFFALFRSFFLSIFLFSIVYILLLF”, the “transcriptional activation domain activity” value was 72200.
“MTYLPFINFSLDIFVIVIVIVIYFPFFVTNFFNWFFSPFWCYLINYLFNLNLF” was tested, and the “transcriptional activation domain activity” value was 52400.
In the case of “SFPIRHIEDKLRNKGHVKTGILSANDGVPPTPNLLDYDWNNLNITGYEWISSE”, the “transcriptional activation domain activity” value is reported as 93900.
In the case of “MLISLLVRLGLDIFMHLYMLLLHISQFSDLLHTRSFLLILFLISGASKRLFFF”, the “transcriptional activation domain activity” value is reported as 51900.
“VLSKKTIDKVLRLIRKLDWNDPQVVQALHKVFSKVWKIKFSHISLLAMLIYDL” was tested, and the “transcriptional activation domain activity” value was 92000.
With “DESINGSEMPDFSLDLVSNDRQTGLEALDYDIHNYFPQHSERLTAEKIDTSAC” the “transcriptional activation domain activity” value was 76700.
With “FNLNEILPLPASDFKLNTVTNLNEIDFTNIFTKSPHPHSGSTHPRQVFDQLDD” the “transcriptional activation domain activity” value was 51600.
In the case of “IHLFISSFPLLFICSLPYAFLSFFPHLFISYFLSSFYSLSTHLFHSFFPFLVI”, the “transcriptional activation domain activity” value is reported as 59400.
For “ARDMLEDTFLIPKNLYAVHGPGISVKALEIADALVDVVNQYDQNAESEAWNFL”, the “transcriptional activation domain activity” value was 112000.
In the case of “MLMLLGKHVLLLIKMISLMDPFQVNILLHRNNPFPAVSFFFYYSFCLFHILHF”, the “transcriptional activation domain activity” value is reported as 55200.
For “LLVLYLVLSYLKHSHMEGLGEFMIKFFEECNVDPFSKVFRGGHYKESVFEGVY”, the “transcriptional activation domain activity” value was 76100.
“SQWRGVVALKLQIVKTLMKIRMVFPGLMTGLSLEYFSVIWTELNNALPIYLNF” was tested, and the “transcriptional activation domain activity” value was 48000.
“PVIFRKRPTYLMFISVCLMYIYLFAVVYIRPYKLTRNNHVAIISWITIVIFLF” was tested, and the “transcriptional activation domain activity” value was 44400.
In the case of “QIDQNGDPLAKYVRNKVRTTKYTIISILPKDLFEQFRNVIFFLVLVIFQNFPF”, the “transcriptional activation domain activity” value is reported as 56900.
In the case of “GKKRKSTGAKSREQPKAKRIAKAKTKTGAFGAGRKGATAGHAKGRAAAAGPKA”, the “transcriptional activation domain activity” value is reported as 59000.
With “MIYGWSIFFFFFFFALHVYIRVFLWGRFCLRVVWVRLFLFHFSGWGCNFGGFV” the “transcriptional activation domain activity” value was 49700.
“KDLNVVEGWEHQGVLRAAANTVKSVRMKESSTGGSQEKVYLKLVESTGHTLQG” was tested, and the “transcriptional activation domain activity” value was 21200.
For “MKILSFLCTYSLSFTLTIPNSLLSFLRTLFNFTNNYKYMILLLLGYLCLIGLF”, the “transcriptional activation domain activity” value was 35600.
“MGGFFLFFFFFSFVDSFGVVYDMDMRSGGVFFFLPFLSTLFFLLLLGSVLFSC” was tested, and the “transcriptional activation domain activity” value was 71600.
With “IPENELLDEDTMNFISSLKNDLSNISNSLPFEYPHEIAEAIRSDFSNEDIYDN” the “transcriptional activation domain activity” value was 98200.
“NLDFDFALPQTATAPDAKTVLPIPELDDAVVESFFSSSTDSTPMFEYENLEDN” was tested, and the “transcriptional activation domain activity” value was 91700.
For “DLMMVVFGVLLSSLFFVFVFVWYCYLLLSCFLSFFLSLVVSWCWLGLHIHVYS”, the “transcriptional activation domain activity” value was 43500.
With “GGEEEEGAPKRPAKKARPSVESEAEVKEEEEEEDAVKPKRGRRTAKSASSSRK” the “transcriptional activation domain activity” value was 27300.
“FGNPPLIWFFWALFSPLFLFFFFFPIFFLSFPFFSFSFLFSFFVLLGVLKAYL” was tested, and the “transcriptional activation domain activity” value was 22100.

From the supplement of paper PMC12636428
